Source: patent US20210077575A1 (CEDARS SINAI MEDICAL CENTER, published 2021)

Molecular target: T1, HER3 (human, UniProt P21860 20-1342)
T1 construct: whole, on cells; Endogenous receptor on tumour cell lines; also called ErbB3; Human ErbB3/HER3
Assay: confocal immunofluorescence, SK-MEL-2 cells treated with HerPBK10-GFPD10 nanoparticles, 0 minutes
Method: The cells were counterstained using DAPI to stain the nucleus and rhodamine phalloidin to stain actin.
Images were taken after 0, 15, 30, 60, and 120 minutes using confocal microscopy.

T1 sequence (P21860 20-1342): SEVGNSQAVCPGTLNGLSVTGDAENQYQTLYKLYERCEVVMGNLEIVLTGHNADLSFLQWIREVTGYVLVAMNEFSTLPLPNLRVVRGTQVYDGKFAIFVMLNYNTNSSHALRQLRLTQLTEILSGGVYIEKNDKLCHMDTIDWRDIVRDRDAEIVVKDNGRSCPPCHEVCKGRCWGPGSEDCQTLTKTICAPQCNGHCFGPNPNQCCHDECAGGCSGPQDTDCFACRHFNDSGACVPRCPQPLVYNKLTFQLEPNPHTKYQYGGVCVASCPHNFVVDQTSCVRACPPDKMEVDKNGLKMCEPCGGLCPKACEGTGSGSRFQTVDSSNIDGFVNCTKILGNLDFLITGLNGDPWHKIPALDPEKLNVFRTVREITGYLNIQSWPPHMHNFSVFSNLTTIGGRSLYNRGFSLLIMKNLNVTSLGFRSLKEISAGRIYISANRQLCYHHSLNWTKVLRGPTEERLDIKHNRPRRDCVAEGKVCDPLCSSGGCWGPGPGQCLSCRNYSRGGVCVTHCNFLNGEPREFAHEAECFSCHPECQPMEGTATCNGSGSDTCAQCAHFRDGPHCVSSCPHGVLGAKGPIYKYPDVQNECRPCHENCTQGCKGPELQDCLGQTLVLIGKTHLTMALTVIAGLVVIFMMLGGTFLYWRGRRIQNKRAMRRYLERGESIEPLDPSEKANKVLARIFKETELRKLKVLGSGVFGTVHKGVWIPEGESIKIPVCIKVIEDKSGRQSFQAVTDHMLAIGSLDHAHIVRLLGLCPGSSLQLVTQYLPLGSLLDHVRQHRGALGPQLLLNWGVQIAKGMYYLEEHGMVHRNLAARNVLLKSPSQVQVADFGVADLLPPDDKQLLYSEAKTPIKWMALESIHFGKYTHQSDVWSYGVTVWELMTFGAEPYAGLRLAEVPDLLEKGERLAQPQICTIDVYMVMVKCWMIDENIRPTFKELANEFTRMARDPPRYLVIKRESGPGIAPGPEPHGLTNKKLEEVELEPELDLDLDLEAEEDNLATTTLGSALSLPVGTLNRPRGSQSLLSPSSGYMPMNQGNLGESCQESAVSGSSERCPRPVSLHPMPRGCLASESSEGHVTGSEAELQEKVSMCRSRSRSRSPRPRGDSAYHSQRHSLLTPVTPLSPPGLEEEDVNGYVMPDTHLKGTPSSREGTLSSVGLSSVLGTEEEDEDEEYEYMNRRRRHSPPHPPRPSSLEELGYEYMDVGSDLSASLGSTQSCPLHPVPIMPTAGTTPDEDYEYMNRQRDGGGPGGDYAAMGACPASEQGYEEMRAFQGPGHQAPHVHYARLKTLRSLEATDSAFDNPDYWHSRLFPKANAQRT

B1: HerPBK10 carrier polypeptide comprising a Her cell-targeting segment, a penton base (PB) segment, a decalysine (K10) binding segment, and an N-terminal … (other)
chain: MRGSHHHHHHGMASMTGGQQMGRDLYDDDDKDRWGSELLPPQLKEMKSQESAAGSKLVLRCETSSEYSSLRFKWFKNGNELNRKNKPQNIKIQKKPGKSELRINKASLADSGEYMCKVISKLGNDSASANIAIVESNEIITGMPASTEGAYVSSESPIRISVSTEGANTSSSTSTSTTGTSHLVKCAEKEKTFCVNGGECFMVKDLSNPSRYLCKCQPGFTGARCTENVPMKVQNQEKAEELYGGSGGSRSMRRAAMYEEGPPPSYESVVSAAPVAAALGSPFDAPLDPPFVPPRYLRPTGGRNSIRYSELAPLFDTTRVYLVDNKSTDVASLNYQNDHSNFLTTVIQNNDYSPGEASTQTINLDDRSHWGGDLKTILHTNMPNVNEFMFTNKFKARVMVSRLPTKDNQVELKYEWVEFTLPEGNYSETMTIDLMNNAIVEHYLKVGRQNGVLESDIGVKFDTRNFRLGFDPVTGLVMPGVYTNEAFHPDIILLPGCGVDFTHSRLSNLLGIRKRQPFQEGFRITYDDLEGGNIPALLDVDAYQASLKDDTEQGGGGAGGSNSSGSGAEENSNAAAAAMQPVEDMNDHAIRGDTFATRAEEKRAEAEAAAEAAAPAAQPEVEKPQKKPVIKPLTEDSKKRSYNLISNDSTFTQYRSWYLAYNYGDPQTGIRSWTLLCTPDVTCGSEQVYWSLPDMMQDPVTFRSTRQISNFPVVGAELLPVHSKSFYNDQAVYSQLIRQFTSLTHVFNRFPENQILARPPAPTITTVSENVPALTDHGTLPLRNSIGGVQRVTITDARRRTCPYVYKALGIVSPRVLSSRTFKKKKKKKKKK
B1: binds.
